Numbering of substitutions follows the chain as printed.
T1: human BCMA (human, UniProt Q02223 1-54, limits assumed)
T1 construct: also called B-cell maturation antigen; TNFRSF17
T1 sequence (looked up): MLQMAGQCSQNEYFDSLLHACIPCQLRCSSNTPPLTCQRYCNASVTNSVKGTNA

B1: PI-61 (antibody, V domains shown)
VH: QVQLQESGGGVVQPGRSLRLSCAASGFTFSSYGMHWVRQAPGKGLEWVAVISYDGSNKYYADSVKGRFTISRDNSKNTLYLQMNSLRAEDTAVYYCGGSGYALHDDYYGLDVWGQGTLVTVSS
VL: QSALTQPASVSGSPGQSITISCTGTSSDVGGYNYVSWYQQHPGKAPKLMIYDVSNRPSGVSNRFSGSKSGNTASLTISGLQAEDEADYYCSSYTSSSTLYVFGSGTKVTVL
notes: also called parental PI-61 antibody; P1-61
B2: H3-13 (antibody, V domains shown)
VH: B1 VH with G55D, S56A, N57H, D106Q, Y108K, G109P, L110V
VL: B1 VL with D52E, P57L, S58R, S69F
notes: AB3 family
B3: H3-14 (antibody, V domains shown)
VH: B1 VH with E6G, G55D, S56A, N57H, D106Q, Y108K, G109P, L110V
VL: B1 VL with D52E, P57L, S69F, T98A
notes: AB3 family
B4: H3-15 (antibody, V domains shown)
VH: B1 VH with E6G, F29V, G55D, S56A, N74S, L103Y, H104D, D105G
VL: B1 VL with D52E, P57L, S58G, S69F, T98A
notes: AB3 family
B5: H2/L2-22 (antibody, V domains shown)
VH: B1 VH with V2A, E6S, G8E, D54H
VL: B1 VL with D52E, P57L, S69F
notes: AB3 family
B6: CD58 Full ECD (ligand)
chain: SQQIYGVVYGNVTFHVPSNVPLKEVLWKKQKDKVAELENSEFRAFSSFKNRVYLDTVSGSLTIYNLTSSDEDEYEMESPNITDTMKFFLYVLESLPSPTLTCALTNGSIEVQCMIPEHYNSHRGLIMYSWDCPMEQCKRNSTSIYFKMENDLPQKIQCTLSNPLFNTTSSIILTTCIPSSGHSRHRGGGGSHHHHHHHH
notes: Recombinant, made in HEK293 cells
B7: CD58_IgV (ligand)
chain: SQQIYGVVYGNVTFHVPSNVPLKEVLWKKQKDKVAELENSEFRAFSSFKNRVYLDTVSGSLTIYNLTSSDEDEYEMESPNITDTMKFFLYVLESGGGGSHHHHHHHH
notes: Recombinant, made in HEK293 cells; also called CD58 domain 1; IgV domain of CD58 (wild type)
B8: IgV V45C_M105C (ligand)
chain: B7 chain with V16C, M76C
notes: Disulfide-stabilised variant
B9: IgV V45C_M114C (ligand)
chain: B7 chain with V16C, M85C
notes: Disulfide-stabilised variant
B10: IgV V54C_G88C (ligand)
chain: B7 chain with V25C, G59C
notes: Disulfide-stabilised variant
B11: Human CD2 (receptor)
chain: KEITNALETWGALGQDINLDIPSFQMSDDIDDIKWEKTSDKKKIAQFRKEKETFKEKDTYKLFKNGTLKIKHLKTDDQDIYKVSIYDTKGKNVLEKIFDLKIQERVSKPKISWTCINTTLTCEVMNGTDPELNLYQDGKHLKLSQRVITHKWTTSLSAKFKCTAGNKVSKESSVEPVSCPEKGLD
notes: also called recombinant human CD2; CD2 extracellular domain

biological target: T1, human BCMA; assay: phage display selection

Binder	binding result
B1	binds

biological target: T1, human BCMA; assay: affinity maturation of PI-61

Binder	binding result
B2	binds
B3	binds
B4	binds
B5	binds

biological target: B11; assay: isothermal titration calorimetry; 100 uM CD2 titrated into 10 uM CD58 variant in HBS
Experimental: (§1) To ensure the binding affinity remained uncompromised by the additional of the stabilizing disulfide variance, isothermal calorimetry (ITC) was performed on the resulting recombinant CD58 proteins to determine their apparent KD and binding stoicheometry (n) to recombinant human CD2.
(§2) Briefly, recombinant human CD2 and recombinant human CD58 variants were dialyzed into HEPES-buffered saline (HBS). CD2 was diluted to final concentration of 100 μM, CD58 variants were diluted to 10 μM. CD2 was titrated into 10 μM of CD58 variants via multiple injections and ΔH (kcal/mole) determined using a MicroCal VP-ITC isothermal titration calorimeter (Malvern). Titrations of CD2 into HBS were used as a reference and KD and n determined from the resulting data.

Binder	n (binding stoichiometry)	Kd [nM]
B6	0.92	–
B7	0.96	610
B8	0.97	880
B9	0.88	380
B10	0.83	600

biological target: B6; assay: as above
Experimental: as §1, §2

Binder	Kd [nM]
B11	570

Source: patent US20220396631A1 (Novartis, published 2022)
